Measurements as given in patent publication US20240060043A1.

Molecular target: FMC63 protein (Example 2)
Test: ELISA, 500 ng/well coated FMC63, fresh biotinylated fusion protein at 500 or 0.5 ng/well, 4° C.

Q: For “TNF-α:CD19 ECD fusion protein (ClonedTNFFP)”, which fold increase in absorbance over wells without fusion protein is on record?
A: Its fold increase in absorbance over wells without fusion protein is greater than 7 fold.
